Experimental data published in patent publication US20100015130.

How the values were obtained:
[1] = molecular target: T1, GST-tagged mouse DISC1 fragment 1-220aa (UniProt Q811T9)
T1 sequence: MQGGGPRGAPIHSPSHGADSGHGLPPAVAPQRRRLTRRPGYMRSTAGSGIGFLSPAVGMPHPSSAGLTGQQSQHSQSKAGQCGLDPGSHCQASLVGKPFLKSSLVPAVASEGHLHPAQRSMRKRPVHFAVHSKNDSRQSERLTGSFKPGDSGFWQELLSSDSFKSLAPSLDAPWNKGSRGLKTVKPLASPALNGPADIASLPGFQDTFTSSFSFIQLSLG

[2] = molecular target: T2, GST-tagged mouse DISC1 fragment 221-355aa (UniProt Q811T9)
T2 sequence: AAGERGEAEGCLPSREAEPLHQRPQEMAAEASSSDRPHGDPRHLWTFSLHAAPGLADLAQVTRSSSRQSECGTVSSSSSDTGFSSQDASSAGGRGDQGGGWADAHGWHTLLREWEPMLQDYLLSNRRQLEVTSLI

[3] = molecular target: T3, GST-tagged mouse DISC1 fragment 356-595aa (UniProt Q811T9)
T3 sequence: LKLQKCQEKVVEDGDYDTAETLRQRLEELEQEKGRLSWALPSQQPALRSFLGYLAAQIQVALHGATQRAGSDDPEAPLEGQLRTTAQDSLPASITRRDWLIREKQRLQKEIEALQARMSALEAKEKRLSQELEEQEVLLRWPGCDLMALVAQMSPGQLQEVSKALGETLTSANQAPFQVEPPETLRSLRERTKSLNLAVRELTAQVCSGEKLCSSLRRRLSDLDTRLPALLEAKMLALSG

[4] = molecular target: T4, GST-tagged mouse DISC1 fragment 596-852aa (UniProt Q811T9)
T4 sequence: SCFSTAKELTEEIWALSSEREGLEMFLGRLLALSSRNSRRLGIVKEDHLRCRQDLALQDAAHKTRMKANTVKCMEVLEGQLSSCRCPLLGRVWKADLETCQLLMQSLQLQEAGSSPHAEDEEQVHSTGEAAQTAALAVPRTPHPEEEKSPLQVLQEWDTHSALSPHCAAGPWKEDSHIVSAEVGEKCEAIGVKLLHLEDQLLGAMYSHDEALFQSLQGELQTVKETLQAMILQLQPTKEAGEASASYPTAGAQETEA

## GST-GSK3β (recombinant, Active Motif)
[1]
  GSK3β Y216 phosphorylation, dose response in vitro: no inhibition of GSK3β Y216 phosphorylation was observed at 0.1 µM and the inhibition of phosphorylation plateaued at 1 µM
  in vitro kinase assay: GST-β-catenin phosphorylation, GST-axin phosphorylation and GSK3β autophosphorylation at Y216: potently inhibited β-catenin, axin and GSK3β phosphorylation at 0.5 µM
[2]
  GSK3β autophosphorylation (Y216), in vitro kinase assay: at higher concentrations (2 µM), DISC1 fragments spanning 221-355 and 356-595 started to inhibit GSK3β autophosphorylation
  in vitro kinase assay: GST-β-catenin phosphorylation, GST-axin phosphorylation and GSK3β autophosphorylation at Y216: none of the other 3 DISC1 fragments, GST-p25, or GST-CASK proteins inhibited GSK3β activity at this concentration (0.5 µM)
[3]
  GSK3β autophosphorylation (Y216), in vitro kinase assay: at higher concentrations (2 µM), DISC1 fragments spanning 221-355 and 356-595 started to inhibit GSK3β autophosphorylation
  in vitro kinase assay: GST-β-catenin phosphorylation, GST-axin phosphorylation and GSK3β autophosphorylation at Y216: none of the other 3 DISC1 fragments, GST-p25, or GST-CASK proteins inhibited GSK3β activity at this concentration (0.5 µM)
[4]
  in vitro kinase assay: GST-β-catenin phosphorylation, GST-axin phosphorylation and GSK3β autophosphorylation at Y216: none of the other 3 DISC1 fragments, GST-p25, or GST-CASK proteins inhibited GSK3β activity at this concentration (0.5 µM)
